Results as given in patent US20250302986A1, “NOVEL PEPTIDE, USGAES THEREOF AND PHARMACEUTICAL COMPOSITION HAVING THE SAME” (Taipei Medical University, priority 2024, published 2025).

T1: Recombinant Mouse B7-1/CD80 Fc Chimera His-tag Protein, CF (R&D Systems, catalog number 740-B1) (mouse, UniProt Q00609 38-245)
T1 construct: Bought reagent; everywhere else it is mouse; also called mouse CD80 recombinant protein; bait; Fc part of the bought chimera not given; His-tag
T1 sequence (looked up): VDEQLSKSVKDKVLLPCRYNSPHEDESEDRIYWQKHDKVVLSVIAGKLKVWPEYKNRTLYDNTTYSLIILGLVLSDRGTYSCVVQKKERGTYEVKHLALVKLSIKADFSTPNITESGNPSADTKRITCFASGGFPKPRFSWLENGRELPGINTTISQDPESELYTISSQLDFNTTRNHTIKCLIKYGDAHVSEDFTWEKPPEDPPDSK

B1: first peptide (VLMGDPSVWWTY) (peptide)
peptide: VLMGDPSVWWTY
notes: In the ELISA screening the peptide stood on an M13 phage clone from the PhD-12 Phage Display Peptide Library (New England Biolabs); also called novel peptide
B2: second peptide (YLIYEEEPLNSM) (peptide)
peptide: YLIYEEEPLNSM
notes: In the ELISA screening the peptide stood on an M13 phage clone from the PhD-12 Phage Display Peptide Library

Columns and labels:
[1] = molecular target: T2, mouse CD80 recombinant protein (Mus musculus, UniProt Q00609); assay: Phage display screening and enzyme-linked immunosorbent assay screening for CD80 binding; details: peptide derived from ELISA-positive phage colonies
T2 construct: Fc (Fc chimera); His-tag; purchased R&D Systems 740-B1
T2 sequence (Q00609 with tags, fused parts or gaps limits assumed): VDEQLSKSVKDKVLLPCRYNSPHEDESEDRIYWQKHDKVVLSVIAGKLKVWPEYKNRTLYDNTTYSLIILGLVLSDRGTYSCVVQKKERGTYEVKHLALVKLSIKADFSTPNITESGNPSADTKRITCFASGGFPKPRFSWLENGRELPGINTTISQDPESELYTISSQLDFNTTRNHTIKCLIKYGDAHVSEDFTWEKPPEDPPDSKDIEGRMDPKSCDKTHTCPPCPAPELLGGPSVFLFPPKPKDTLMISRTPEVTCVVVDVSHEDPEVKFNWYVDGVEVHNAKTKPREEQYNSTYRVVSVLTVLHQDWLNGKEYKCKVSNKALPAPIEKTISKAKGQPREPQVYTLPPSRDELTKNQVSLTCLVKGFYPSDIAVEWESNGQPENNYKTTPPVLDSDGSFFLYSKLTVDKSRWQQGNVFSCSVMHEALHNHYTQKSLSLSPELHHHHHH
Description: In ‘Phage Display Screening”, biopanning is applied via phage display technology. First, the G protein magnetic beads (product name: Dynabeads™ Protein G; manufacturer: Invitrogen) are added to mix with the phage peptide library (product name: PhD-12 Phage Display Peptide Library; manufacturer: New England Biolabs), thus the mixture is incubated for 1 hour at 4° C. ambient conditions. Then, a magnet is used to remove the G protein magnetic beads to exclude phages bound to the G protein magnetic beads in the phage peptide library, thereby obtaining a purified phage peptide library. Continuously, the bait carrier is added to the purified phage peptide library and incubated overnight at 4° C. ambient conditions. The bait carrier is magnetic beads immobilized with mouse CD80 recombinant protein (product name: Recombinant Mouse B7-1/CD80 Fc Chimera His-tag Protein, CF; manufacturer: R&D Systems; catalog number: 740-B1). Therefore, the phages in the purified phage peptide library that bind to the mouse CD80 recombinant protein will be bound to the bait carrier, and then the bait carrier will be separated using the magnet. Then the bait carrier is rinsed with cleaning solution to eliminate phages with weak binding force. The cleaning solution is phosphate buffered saline (PBS) containing 0.1% (v/v) polysorbate-20 (Tween 20). […]

[2] = molecular target: T1, Recombinant Mouse B7-1/CD80 Fc Chimera …; assay: phage ELISA on plate-coated mouse CD80 recombinant protein, anti-M13 HRP, absorbance at 450 nm
Description: The PEG8000/NaCl contains 20% (v/v) PEG8000 (product name: Poly (ethylene glycol); manufacturer: Sigma-Aldrich; Cat. No.: P5413-1KG) and 2.5M NaCl (product name: Sodium chloride; manufacturer: Honeywell fluka; Cat. No.: 31434S-1KG). The above steps are repeated for five rounds in total. In the fourth and fifth rounds, phage clones will be randomly selected for culture, and used in the subsequent enzyme-linked immunosorbent assay (ELISA) to screen out desired phages.
In the “Enzyme Combined Immunosorbent Assay Screening”, the mouse CD80 recombinant protein is first fixed in the wells of a microplate (product name: Clear C-Shaped Immuno Nonsterile 96-Well Plates; manufacturer: Thermo Fisher Scientific; Cat. No.: 446612), and then the phage clones randomly selected in the fourth and fifth rounds of the “Phage Display Screening” are mixed with the diluent at a volume ratio of 1:2 to obtain a phage dilution, which is a phosphate buffered saline comprising 3% (v/v) bovine serum albumin (BSA) and 0.1% (v/v) polysorbate-20. […] Constantly, a microplate reader is adopted to measure the absorbance at 450 nm to confirm whether the phages in each grid of the microplate are still bound to the mouse CD80 recombinant protein in the microplate. […]

Molecule | binding to CD80 protein [1] | binding result [2]
VLMGDPSVWWTY [first peptide, peptide from phage display screening against mouse CD80 recombinant protein] | can indeed bind to the CD80 protein | 
B1 |  | binds
B2 |  | binds
